This note sets out measurements from the supplement of paper PMC9112550, “Optimization of the antimicrobial peptide Bac7 by deep mutational scanning” (BMC Biology, 2022).
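Note: peptides expressed intracellularly from a pBAD plasmid library in pooled LB shake-flask culture, induced with 0.3% L-arabinose, DNA abundance read by NGS, three biological replicates, DESeq2 with apeglm shrinkage.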

The test system of this data set is Escherichia coli TOP10. Briefly: shrunken log2 fold change of peptide-encoding DNA abundance (4.5 h post-induction vs induction); higher = less antimicrobial activity (less host growth inhibition). The note with it: time post-induction: 4.5 h; library: site-saturation at positions 5, 18, 19, 20.
Take RRIRIRPPRLPRPRPRPIHDPRP: the “shrunken log2 fold change” value worked out at 2.93.
In the case of RRIRARPPRLPRPRPRPYTEPRP it was -0.583.
In the case of RRIRERPPRLPRPRPRPFSNPRP it was -0.441; in that of RRIRSRPPRLPRPRPRPMSAPRP, 0.202.
The figure for RRIRERPPRLPRPRPRPWDVPRP is 0.0649; for RRIRDRPPRLPRPRPRPGTEPRP it is 0.974; for RRIRCRPPRLPRPRPRPFFKPRP it is -0.197.
With RRIRARPPRLPRPRPRPGGGPRP, the “shrunken log2 fold change” value is 0.898.
For the sequence RRIRHRPPRLPRPRPRPNFHPRP, the “shrunken log2 fold change” value is -0.407.
Turning to RRIRERPPRLPRPRPRPMEMPRP, the “shrunken log2 fold change” value came to 0.0606.
The figure for RRIRSRPPRLPRPRPRPNPCPRP is -0.574.
In the case of RRIRPRPPRLPRPRPRPTKAPRP it was -0.191; in that of RRIRNRPPRLPRPRPRPSTIPRP, 0.0179.
In the case of RRIRYRPPRLPRPRPRPIMKPRP it was 0.0367; in that of RRIRMRPPRLPRPRPRPWSIPRP, -0.0237.
On to RRIRYRPPRLPRPRPRPRNIPRP, for which the “shrunken log2 fold change” value was -0.00665.
With RRIRIRPPRLPRPRPRPSKHPRP, the “shrunken log2 fold change” value was -0.813.
In the case of RRIRWRPPRLPRPRPRPAYRPRP, the “shrunken log2 fold change” value was -0.00641.
Take RRIRHRPPRLPRPRPRPFRGPRP: the “shrunken log2 fold change” value was -0.254.
In the case of RRIRYRPPRLPRPRPRPHFWPRP it was -0.257; in that of RRIRTRPPRLPRPRPRPKGRPRP, -0.219.
In the case of RRIRSRPPRLPRPRPRPEGWPRP it was 1.18; in that of RRIRERPPRLPRPRPRPSDQPRP, -1.5; in that of RRIRERPPRLPRPRPRPMGKPRP, -0.01.
With RRIRIRPPRLPRPRPRPEMCPRP, the “shrunken log2 fold change” value was determined as 0.0321.
The figure for RRIRQRPPRLPRPRPRPWKLPRP is -0.09; for RRIRIRPPRLPRPRPRPPYLPRP it is -0.612.
In the case of RRIRDRPPRLPRPRPRPDEHPRP it was 0.0279.
The figure for RRIRIRPPRLPRPRPRPETLPRP is -0.102.
Turning to RRIRRRPPRLPRPRPRPNWIPRP, the “shrunken log2 fold change” value came to 0.259.
In the case of RRIRIRPPRLPRPRPRPRSHPRP it was -0.287.
In the case of RRIRMRPPRLPRPRPRPQMTPRP it was 1.2; in that of RRIRHRPPRLPRPRPRPWSWPRP, -0.304; in that of RRIRCRPPRLPRPRPRPFRLPRP, -0.0979.
In the case of RRIRGRPPRLPRPRPRPAPGPRP it was 1.12; in that of RRIRVRPPRLPRPRPRPHCHPRP, -0.105.
For RRIRDRPPRLPRPRPRPHWCPRP, the “shrunken log2 fold change” value was -0.116.
As for RRIRYRPPRLPRPRPRPSAHPRP, the “shrunken log2 fold change” value is -0.117.
In the case of RRIRFRPPRLPRPRPRPQLCPRP it was -0.0465; in that of RRIRTRPPRLPRPRPRPDGFPRP, -0.0487; in that of RRIRYRPPRLPRPRPRPPIMPRP, -1.14.
For RRIRGRPPRLPRPRPRPFWLPRP, the “shrunken log2 fold change” value was found to be 0.299.
Take RRIRIRPPRLPRPRPRPKQSPRP: the “shrunken log2 fold change” value is -0.384.
In the case of RRIRHRPPRLPRPRPRPMWSPRP it was -0.209.
With RRIRLRPPRLPRPRPRPWNKPRP, the “shrunken log2 fold change” value was -0.436.
Regarding RRIRQRPPRLPRPRPRPIFIPRP, the “shrunken log2 fold change” value is -0.472.
Consider RRIRQRPPRLPRPRPRPADNPRP, for which the “shrunken log2 fold change” value is -0.536.
In the case of RRIRKRPPRLPRPRPRPHYMPRP it was -0.0279.
As to RRIRRRPPRLPRPRPRPHLNPRP, the “shrunken log2 fold change” value was -0.194.
In the case of RRIRERPPRLPRPRPRPRPRPRP it was 0.723.
As to RRIRHRPPRLPRPRPRPNHTPRP, the “shrunken log2 fold change” value was -1.04.
In the case of RRIRQRPPRLPRPRPRPPVLPRP it was 0.155.
In the case of RRIRGRPPRLPRPRPRPVQWPRP, the “shrunken log2 fold change” value was found to be 0.171.
The figure for RRIRDRPPRLPRPRPRPYGRPRP is -0.0901; for RRIRARPPRLPRPRPRPKHHPRP it is -0.00948.
Consider RRIRDRPPRLPRPRPRPMQMPRP, for which the “shrunken log2 fold change” value came out at 0.467.
As to RRIRNRPPRLPRPRPRPWFEPRP, the “shrunken log2 fold change” value is -0.879.
The figure for RRIRCRPPRLPRPRPRPKMYPRP is -0.342; for RRIRGRPPRLPRPRPRPQTEPRP it is 0.149.
For RRIRPRPPRLPRPRPRPLEVPRP, the “shrunken log2 fold change” value was -0.007.
In the case of RRIRPRPPRLPRPRPRPADPPRP it was 0.558; in that of RRIRIRPPRLPRPRPRPCPNPRP, -0.159.
The figure for RRIRARPPRLPRPRPRPAATPRP is 0.914; for RRIRDRPPRLPRPRPRPHEYPRP it is -0.01; for RRIRARPPRLPRPRPRPNYGPRP it is -0.24.
The figure for RRIRPRPPRLPRPRPRPYYSPRP is -0.246; for RRIRPRPPRLPRPRPRPAVNPRP it is -0.103; for RRIRWRPPRLPRPRPRPFTEPRP it is -0.478.
Turning to RRIRFRPPRLPRPRPRPPWHPRP, the “shrunken log2 fold change” value amounted to 0.087.
RRIRWRPPRLPRPRPRPCKVPRP: the “shrunken log2 fold change” value was -0.0816.
In the case of RRIRMRPPRLPRPRPRPISRPRP it was 0.074.
The figure for RRIRARPPRLPRPRPRPCQCPRP is 0.0726; for RRIRYRPPRLPRPRPRPSHIPRP it is -1.45; for RRIRRRPPRLPRPRPRPLFLPRP it is -0.173.
In the case of RRIRKRPPRLPRPRPRPKETPRP it was 0.35; in that of RRIRIRPPRLPRPRPRPQLTPRP, -0.28.
In the case of RRIRERPPRLPRPRPRPYALPRP, the “shrunken log2 fold change” value was -0.000856.
Consider RRIRRRPPRLPRPRPRPQDLPRP, for which the “shrunken log2 fold change” value worked out at 0.0389.
The figure for RRIRMRPPRLPRPRPRPYPNPRP is -0.021; for RRIRKRPPRLPRPRPRPDNNPRP it is 0.0165.
As for RRIRDRPPRLPRPRPRPFTFPRP, the “shrunken log2 fold change” value is -0.167.
In the case of RRIRTRPPRLPRPRPRPNGCPRP it was 0.0101.
The figure for RRIRSRPPRLPRPRPRPTGAPRP is 0.633; for RRIRTRPPRLPRPRPRPAHQPRP it is 3.43; for RRIRFRPPRLPRPRPRPPQKPRP it is 0.719.
RRIRKRPPRLPRPRPRPHSTPRP: the “shrunken log2 fold change” value is -0.0637.
The figure for RRIRARPPRLPRPRPRPWDGPRP is 0.72; for RRIRLRPPRLPRPRPRPSFHPRP it is -0.457.
Regarding RRIRIRPPRLPRPRPRPKELPRP, the “shrunken log2 fold change” value was -0.563.
The figure for RRIRMRPPRLPRPRPRPHWCPRP is -0.153; for RRIRNRPPRLPRPRPRPYRTPRP it is -0.268; for RRIRARPPRLPRPRPRPQQIPRP it is 0.218.
In the case of RRIRRRPPRLPRPRPRPNNMPRP it was -0.348; in that of RRIRERPPRLPRPRPRPPTKPRP, 0.774.
For RRIRFRPPRLPRPRPRPCMDPRP, the “shrunken log2 fold change” value is -0.336.
The figure for RRIRNRPPRLPRPRPRPEMWPRP is -0.0348; for RRIRYRPPRLPRPRPRPVIQPRP it is -0.607.
The figure for RRIRKRPPRLPRPRPRPEMMPRP is 0.113.
In the case of RRIRCRPPRLPRPRPRPWTYPRP it was -0.015; in that of RRIRARPPRLPRPRPRPDEKPRP, 0.447.
For RRIRSRPPRLPRPRPRPMKDPRP, the “shrunken log2 fold change” value is -0.157.
The figure for RRIRKRPPRLPRPRPRPWPHPRP is 0.298; for RRIRLRPPRLPRPRPRPTIIPRP it is 0.0804; for RRIRQRPPRLPRPRPRPFPCPRP it is 0.0349.
As for RRIRLRPPRLPRPRPRPAKAPRP, the “shrunken log2 fold change” value was determined as 0.271.
In the case of RRIRSRPPRLPRPRPRPCSKPRP it was -0.234; in that of RRIRHRPPRLPRPRPRPFAHPRP, 0.186.
Consider RRIRIRPPRLPRPRPRPRNQPRP, for which the “shrunken log2 fold change” value was -0.542.
The figure for RRIRNRPPRLPRPRPRPNDSPRP is -0.235; for RRIRHRPPRLPRPRPRPLSRPRP it is 0.172; for RRIRQRPPRLPRPRPRPLAIPRP it is -0.122.
The figure for RRIRVRPPRLPRPRPRPECSPRP is -0.091.
On to RRIRARPPRLPRPRPRPIAVPRP, for which the “shrunken log2 fold change” value is 0.166.
In the case of RRIRWRPPRLPRPRPRPDGDPRP it was 0.36; in that of RRIRGRPPRLPRPRPRPYSRPRP, -0.024.
In the case of RRIRMRPPRLPRPRPRPHIVPRP it was 0.0532; in that of RRIRQRPPRLPRPRPRPCRKPRP, 0.0642.
Take RRIRDRPPRLPRPRPRPSCPPRP: the “shrunken log2 fold change” value came to 0.00741.
In the case of RRIRKRPPRLPRPRPRPIFRPRP it was 0.132; in that of RRIRYRPPRLPRPRPRPYCPPRP, -0.848.
Take RRIRIRPPRLPRPRPRPAQYPRP: the “shrunken log2 fold change” value was -0.13.
The figure for RRIRPRPPRLPRPRPRPGNLPRP is -0.376; for RRIRPRPPRLPRPRPRPIEVPRP it is -0.113; for RRIRSRPPRLPRPRPRPAFNPRP it is 0.0949.
In the case of RRIRCRPPRLPRPRPRPTEMPRP it was -0.102.
